Biological target: B/Victoria/504/2000 HA ectodomain (residues 1–530), soluble, His-tagged (influenza B virus B/Victoria/504/2000)
Assay: negative stain EM reconstruction

Substance: B/Victoria/504/2000 HA ectodomain (residues 1–530), soluble, His-tagged (domain or fragment)
- stoichiometry N: 3
